Test results as given in PMC4300553 (2015).
Ends that are not written are not given here. fluorescein = fluorescein label on the N-terminus of the peptide

Tests used:
Test in all cases: fluorescence anisotropy
[1] = target: T1, Src-optimal substrate peptide Rs1 (synthetic construct)
T1 chain: fluorescein-AEEEIYGEFAKKK

[2] = target: T2, Src-optimal substrate peptide Rs1 (synthetic construct)
T2 chain: fluorescein-AEEEIYGEFAKKK

[3] = target: T3, Src-optimal substrate peptide Rs1 (synthetic construct)
T3 chain: fluorescein-AEEEIYGEFAKKK

Kd [1]: 17 µM | Kd [2]: 37 µM | Kd [3]: 16 µM
B1: Src kinase domain 251-533 (protein)
chain: QTQGLAKDAWEIPRESLRLEVKLGQGCFGEVWMGTWNGTTRVAIKTLKPGTMSPEAFLQEAQVMKKLRHEKLVQLYAVVSEEPIYIVTEYMSKGSLLDFLKGEMGKYLRLPQLVDMAAQIASGMAYVERMNYVHRDLRAANILVGENLVCKVADFGLARLIEDNEYTARQGAKFPIKWTAPEAALYGRFTIKSDVWSFGILLTELTTKGRVPYPGMVNREVLDQVERGYRMPCPPECPESLHDLMCQCWRKDPEERPTFEYLQAFLEDYFTSTEPQYQPGENL
